{
  "source": "the Human Domainome abundance scans (Beltran et al. 2025)",
  "parents": {"B1": {"name": "Unconventional myosin-Ie, residues 1051 to 1108; numbered along this chain, Q12965 (parent)", "chain": "PQVPQCKALYAYDAQDTDELSFNANDIIDIIKEDPSGWWTGRLRGKQGLFPNNYVTKI"}},
  "note": "± gives the uncertainty stated by the source.",
  "data": [
    {"variants_of": "B1", "assay": "abundance fitness (aPCA) (normalised: wild type 0, dead -1); higher = more abundant; growth selection in yeast, the domain comes from the species named", "settings": "Homo sapiens", "values": [
      {"variant": "PQVPQCKALYAYDAQDTDELSFNANDIIDIIKEDPSGWWTGALRGKQGLFPNNYVTKI", "note": "[R42A]", "abundance fitness": "-0.013 ± 0.039"},
      {"variant": "PQVPQCKALYAYDAQDTDELSFNANDIIDIIKEDPSGWWTGRLRGKCGLFPNNYVTKI", "note": "[Q47C]", "abundance fitness": "-0.236 ± 0.1"},
      {"variant": "PQVPQCKALYAYDAQDTDELSFNANDIIDIIEEDPSGWWTGRLRGKQGLFPNNYVTKI", "note": "[K32E]", "abundance fitness": "0.013 ± 0.064"},
      {"variant": "PQVPMCKALYAYDAQDTDELSFNANDIIDIIKEDPSGWWTGRLRGKQGLFPNNYVTKI", "note": "[Q5M]", "abundance fitness": "-0.041 ± 0.074"},
      {"variant": "PQVPQCKALYAYDAQDTDELSFNANDIIDIIKEDCSGWWTGRLRGKQGLFPNNYVTKI", "note": "[P35C]", "abundance fitness": "-0.066 ± 0.061"},
      {"variant": "PQVPQCKALIAYDAQDTDELSFNANDIIDIIKEDPSGWWTGRLRGKQGLFPNNYVTKI", "note": "[Y10I]", "abundance fitness": "-0.364 ± 0.091"},
      {"variant": "PQVPQCKALYAYDAQDTDELSFNANDIIDIIKEDPSGWWTGRLRGKQTLFPNNYVTKI", "note": "[G48T]", "abundance fitness": "-0.91 ± 0.082"},
      {"variant": "PQVPQCKALYAYDAQDTDELSFNANDIIDIIKEDPSGWWTGRLRGKQGLTPNNYVTKI", "note": "[F50T]", "abundance fitness": "-1.08 ± 0.18"},
      {"variant": "PQVPQCKALYAYDAQDTDELSFNANDIIDIIKEDPSGWWTGRLRGKQGWFPNNYVTKI", "note": "[L49W]", "abundance fitness": "-0.157 ± 0.062"},
      {"variant": "PQVPQCKALYAYDAQDTDELSFNANDIIDIIKEDPSGWWTGRLRGKQGPFPNNYVTKI", "note": "[L49P]", "abundance fitness": "-0.656 ± 0.091"},
      {"variant": "PQVPQCKALYAYDAQDTDELSFNANDIIDIIKEDPSGWWTGRLRGKQGKFPNNYVTKI", "note": "[L49K]", "abundance fitness": "0.036 ± 0.066"},
      {"variant": "PQVPQCKALYAYDAQDTDELSFNANDIIDIIKKDPSGWWTGRLRGKQGLFPNNYVTKI", "note": "[E33K]", "abundance fitness": "-0.368 ± 0.14"},
      {"variant": "PQVPQCKALYAYDAQDTDELSFNANDIIDIIKNDPSGWWTGRLRGKQGLFPNNYVTKI", "note": "[E33N]", "abundance fitness": "-0.576 ± 0.049"},
      {"variant": "PQVPQCKALYAYDAQDTDELSFNANDIIDIIKEDPSGWWTGRLRGKQGLFPNNCVTKI", "note": "[Y54C]", "abundance fitness": "-0.087 ± 0.064"},
      {"variant": "PQVPQCKALYAYDAQDTDELSFNANDIIDIIKEDPSGWWTGRLRGKQGLFKNNYVTKI", "note": "[P51K]", "abundance fitness": "-0.18 ± 0.094"},
      {"variant": "PQVPQCKALYAYDAQDTDELSFGANDIIDIIKEDPSGWWTGRLRGKQGLFPNNYVTKI", "note": "[N23G]", "abundance fitness": "-0.048 ± 0.027"},
      {"variant": "PQVPQCKALYAYDAQDTDELSFCANDIIDIIKEDPSGWWTGRLRGKQGLFPNNYVTKI", "note": "[N23C]", "abundance fitness": "-0.062 ± 0.033"},
      {"variant": "PQVPQCKALYAYDAQDTDELSFNANDIIDIIKEDPSYWWTGRLRGKQGLFPNNYVTKI", "note": "[G37Y]", "abundance fitness": "-0.811 ± 0.26"},
      {"variant": "PQVPQCKALYAYDAQDTDELSFNANDIIDIIKEDPSFWWTGRLRGKQGLFPNNYVTKI", "note": "[G37F]", "abundance fitness": "-0.797 ± 0.31"},
      {"variant": "PQVPQCKALYAYDAQDTDELSFNANDIIDIIKEDPSGWWTGRLRGKQGLFPNTYVTKI", "note": "[N53T]", "abundance fitness": "-0.275 ± 0.097"},
      {"variant": "PQVPQCKALYAYDAQDTDELSFNANDIIDIIKEDPSGWWTGRLRGKQGLFPNEYVTKI", "note": "[N53E]", "abundance fitness": "-0.078 ± 0.066"},
      {"variant": "PQVPQCTALYAYDAQDTDELSFNANDIIDIIKEDPSGWWTGRLRGKQGLFPNNYVTKI", "note": "[K7T]", "abundance fitness": "-0.049 ± 0.069"},
      {"variant": "PQVPQCKALYAYDAQDTDELSFNANDIIDIIKEDPSGWWTGRLRGRQGLFPNNYVTKI", "note": "[K46R]", "abundance fitness": "-0.01 ± 0.04"},
      {"variant": "PQVPQCKALYAYDAQDTDELSFNANDIICIIKEDPSGWWTGRLRGKQGLFPNNYVTKI", "note": "[D29C]", "abundance fitness": "-0.298 ± 0.086"},
      {"variant": "PQVPQCKALYAYDAQDTDELSFNANDIIDIIKEDPSGWWTGRLRGKQGLFPNNYVNKI", "note": "[T56N]", "abundance fitness": "-0.078 ± 0.05"},
      {"variant": "PQVPQCKALYAYDAQDTDELSFNANDIIDRIKEDPSGWWTGRLRGKQGLFPNNYVTKI", "note": "[I30R]", "abundance fitness": "-1.01 ± 0.067"},
      {"variant": "PQVPQCKALYAYDAQDTDELSFNANDIIDQIKEDPSGWWTGRLRGKQGLFPNNYVTKI", "note": "[I30Q]", "abundance fitness": "-0.891 ± 0.19"},
      {"variant": "PQVPQCKALYAYDAQDGDELSFNANDIIDIIKEDPSGWWTGRLRGKQGLFPNNYVTKI", "note": "[T17G]", "abundance fitness": "-0.057 ± 0.044"},
      {"variant": "PQVPQCKALYHYDAQDTDELSFNANDIIDIIKEDPSGWWTGRLRGKQGLFPNNYVTKI", "note": "[A11H]", "abundance fitness": "-0.013 ± 0.078"},
      {"variant": "PQVPQCKALYAYDAQTTDELSFNANDIIDIIKEDPSGWWTGRLRGKQGLFPNNYVTKI", "note": "[D16T]", "abundance fitness": "-0.024 ± 0.058"},
      {"variant": "PQVPQCKALYAYDAQDTDFLSFNANDIIDIIKEDPSGWWTGRLRGKQGLFPNNYVTKI", "note": "[E19F]", "abundance fitness": "-0.095 ± 0.078"},
      {"variant": "PQVPQCKALYAYDAQDTDNLSFNANDIIDIIKEDPSGWWTGRLRGKQGLFPNNYVTKI", "note": "[E19N]", "abundance fitness": "-0.277 ± 0.093"},
      {"variant": "PQVPQCKALYAYDAPDTDELSFNANDIIDIIKEDPSGWWTGRLRGKQGLFPNNYVTKI", "note": "[Q15P]", "abundance fitness": "-0.484 ± 0.18"},
      {"variant": "PQVPQCKALYAYDAQDTDELSFNANEIIDIIKEDPSGWWTGRLRGKQGLFPNNYVTKI", "note": "[D26E]", "abundance fitness": "-0.015 ± 0.046"},
      {"variant": "PQVPQCKALYAYDAQDTDELSFNANDIIDIIKEDPSGWWTGRLRGKQGLFPENYVTKI", "note": "[N52E]", "abundance fitness": "0.019 ± 0.062"},
      {"variant": "PQVPQCKALYAYDAQDTDELSFNANDIIDIIKEDPSGWWTGRLRGKQGLFPFNYVTKI", "note": "[N52F]", "abundance fitness": "0.002 ± 0.031"},
      {"variant": "PQVPQCKALYAYDAQDTDELSFNANDIIDIIKEDPSGWWTGRLRGKQGLFPYNYVTKI", "note": "[N52Y]", "abundance fitness": "-0.209 ± 0.11"},
      {"variant": "PQVPQCKALYAYDAQDTDELSFNANDIIDIIKEDPSGWWTGRLRGKQGLFPTNYVTKI", "note": "[N52T]", "abundance fitness": "-0.087 ± 0.042"},
      {"variant": "PQVPQCKALYAYDAQDTDELSFNAEDIIDIIKEDPSGWWTGRLRGKQGLFPNNYVTKI", "note": "[N25E]", "abundance fitness": "-0.117 ± 0.064"},
      {"variant": "PDVPQCKALYAYDAQDTDELSFNANDIIDIIKEDPSGWWTGRLRGKQGLFPNNYVTKI", "note": "[Q2D]", "abundance fitness": "0.01 ± 0.091"},
      {"variant": "PRVPQCKALYAYDAQDTDELSFNANDIIDIIKEDPSGWWTGRLRGKQGLFPNNYVTKI", "note": "[Q2R]", "abundance fitness": "-0.317 ± 0.042"},
      {"variant": "PQVPQCKALYAYDAQDTDELSFNANDIIDIDKEDPSGWWTGRLRGKQGLFPNNYVTKI", "note": "[I31D]", "abundance fitness": "-0.359 ± 0.073"},
      {"variant": "PQVPQCKALYAYDAQDTDELSFNANDIIDIPKEDPSGWWTGRLRGKQGLFPNNYVTKI", "note": "[I31P]", "abundance fitness": "-0.87 ± 0.15"},
      {"variant": "PQVPQCKALYAYDAQDTDEHSFNANDIIDIIKEDPSGWWTGRLRGKQGLFPNNYVTKI", "note": "[L20H]", "abundance fitness": "-0.977 ± 0.49"},
      {"variant": "PQVPQCKALYAYDAQDTDELSYNANDIIDIIKEDPSGWWTGRLRGKQGLFPNNYVTKI", "note": "[F22Y]", "abundance fitness": "-0.714 ± 0.41"},
      {"variant": "PQVPQCKALYAYDNQDTDELSFNANDIIDIIKEDPSGWWTGRLRGKQGLFPNNYVTKI", "note": "[A14N]", "abundance fitness": "-0.452 ± 0.19"}
    ]}
  ]
}
